Key:
Assay in all cases: BLI; 25 nM WDR44 (334–389) wild type or mutant immobilised on anti-penta-His tips, […] nM Rab11; responses normalised to the mean wildtype response; 30 °C; 20 mM Hepes pH 7.5, 150 mM NaCl, 1 mM MgCl2, bovine serum albumin, 0.002% Tween-20
[1] = molecular target: Strep-His WDR44 (334–389) I359A (human) (UniProt Q5JSH3)
[2] = molecular target: Strep-His WDR44 (334–389) K360E (human) (UniProt Q5JSH3)
[3] = molecular target: Strep-His WDR44 (334–389) L354A (human) (UniProt Q5JSH3)
Strep-His WDR44 (334–389) L354A (human), sequence (Q5JSH3 334-389 L354A): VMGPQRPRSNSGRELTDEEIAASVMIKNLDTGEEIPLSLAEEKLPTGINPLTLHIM

[4] = molecular target: Strep-His WDR44 (334–389) L370A (human) (UniProt Q5JSH3)
Strep-His WDR44 (334–389) L370A (human), sequence (Q5JSH3 334-389 L370A): as the sequence (Q5JSH3 334-389 L354A) above, with A21L, L37A counted along it

Measured: percent decrease in complex formation against wild type

Strep-His WDR44 (334–389) K360E (human), sequence (Q5JSH3 334-389 K360E): as the sequence (Q5JSH3 334-389 L354A) above, with A21L, K27E counted along it
Strep-His WDR44 (334–389) I359A (human), sequence (Q5JSH3 334-389 I359A): as the sequence (Q5JSH3 334-389 L354A) above, with A21L, I26A counted along it

Rab11a (GTPγS-loaded) (from UniProt P62491 1-216) (natural protein)
> 95%: [1] | [2] | [3] | [4]

From article PMC9808001
